Where no end group is shown, it is not given here. The star is where a group is joined. 125I = radioactive iodine label on Tyr, [125I]*

Here are results for 7 molecules from paper PMC2854129, “Spadin, a Sortilin-Derived Peptide, Targeting Rodent TREK-1 Channels: A New Concept in the Antidepressant Drug Design” (PLoS Biology, 2010).

Experiment [1] has as its target TREK-1 channel (KCNK2), transfected in COS-7 cells (mouse) (UniProt P97438).
For experiment [2], the target named is NTSR3/Sortilin (UniProt Q99523). The following applies: cited from earlier work.
Experiment [3] addresses T1, TREK-1 (Mus musculus, UniProt P97438).
T1 sequence (P97438 1-426): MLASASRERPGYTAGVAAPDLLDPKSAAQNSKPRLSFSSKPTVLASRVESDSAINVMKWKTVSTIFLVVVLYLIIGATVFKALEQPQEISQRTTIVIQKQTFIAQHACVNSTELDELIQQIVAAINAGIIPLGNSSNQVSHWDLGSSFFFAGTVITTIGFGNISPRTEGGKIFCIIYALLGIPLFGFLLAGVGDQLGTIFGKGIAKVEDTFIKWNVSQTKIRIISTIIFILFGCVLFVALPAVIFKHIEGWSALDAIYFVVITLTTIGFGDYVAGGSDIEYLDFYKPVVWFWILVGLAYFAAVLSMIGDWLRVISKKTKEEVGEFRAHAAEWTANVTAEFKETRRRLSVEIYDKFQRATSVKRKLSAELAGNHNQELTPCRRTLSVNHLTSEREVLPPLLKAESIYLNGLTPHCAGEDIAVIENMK
Description: Association kinetics and internalization of 125I-spadin on whole COS-7 cells expressing TREK-1. Further details: expressed in transfected cells; host or cells: COS-7 cells, DEAE-dextran transfection. The format is cell-based. The note with it: 37°C; for intracellular (acid-NaCl wash resistant) fraction of total bound 125I-spadin: 30 min, acid-NaCl wash 2 min. As for the experimental part:
Cells, grown on 12 mm multiwell-dishes, were incubated with 0.2 nM ^125I-spadin for various times at 37°C in an Earle's Tris-Hepes buffer (cell binding buffer). Incubations were terminated by washing cells twice with the binding buffer or with the same buffer containing 0.5 M NaCl, pH 4, for 2 min to remove non-sequestrated radioactivity (acid-NaCl wash). Cells were harvested with 1 ml of 0.1 N NaOH and counted in a gamma-counter. Non-specific binding was determined in the presence of 10 µM unlabeled spadin.

Experiment [4] concerns non-transfected COS-7 cells. In words: 125I-spadin binding to non-transfected COS-7 cells.
Experiment [5] deals with TREK-1 channel. Description: Whole-cell patch-clamp, hippocampal CA3 pyramidal neurons in brain slices, wild-type mice. The format is cell-based, mouse. The note with it: 12 out of 28 recorded neurons; K+ blockers; aa 10 µM; mean ± SEM, n = 12. For orientation: The patch-clamp technique gives a direct electrical read-out from membranes.
In experiment [6] the test system is TREK-1. Description: Whole-cell patch-clamp, cultured hippocampal pyramidal neurons. The following applies: 10 µM aa, K+ blockers, 7 out of 70 recorded neurons, at −50 mV. The format is cell-based, mouse. As for the experimental part:
Cortical neurons were prepared from 14 old mouse embryos, whereas hippocampal neurons were prepared from newborn mice. Briefly, dissected brain areas were dissociated and neurons were plated on polylysine-treated 35 or 60 mm dishes and maintained in culture in Neurobasal medium supplemented with B27, Glutamax, and antibiotics for 2 to 3 wk before to be used for electrophysiological or biochemical experiments.
Supplementary file pbio.1000355.s004.tif: Figure S4 Effects of spadin on cultured pyramidal neurons from hippocampus. (A) Cultured pyramidal neuron from hippocampus, with on top, the patch-clamp pipette. Neurons were chosen according to their morphology. (B) Current recorded in response to ramps of potential obtained in the various conditions indicated (aa, arachidonic acid: 10 µM; Spadin: 1 µM; Fluoxetine: 20 µM). Neurons were recorded in the whole-cell configuration of the patch-clamp technique. In voltage-clamp, ramps of potential from −90 mV to 70 mV were applied every 10 s. The % variation of the current amplitude was always measured at −50 mV. The currents were recorded in response to such ramps in control conditions and in the presence of a cocktail of potassium blockers suitable to isolate the TREK currents (10 mM tetraethyl ammonium (TEA), 3 mM 4-aminopyridine (4-AP), 50 nM charybdotoxin, 10 µM glibenclamide, 100 nM apamin). […] The blocks were reversible. (C) Time course of spadin and fluoxetine effects. Applications are indicated by the horizontal bars. (2.03 MB TIF) Click here for additional data file.

In experiment [7] the target is T1, TREK-1. In words: Whole-cell patch-clamp, TREK-1 transfected COS-7 cells. The format is cell-based. Further details: GFP; expressed in transfected cells; host or cells: COS-7 cells, DEAE-dextran transfection. The note with it: 10 µM aa. As for the experimental part:
All electrophysiological experiments were done on COS-7 cells seeded at a density of 20,000 cells/35-mm dish 24 h before transfection. Cells were transfected by the classical DEAE-dextran method with TREK-1-GFP plasmids (0.1 µg/µL). Cells were visualized 48–72 h after transfection using fluorescence.
The whole-cell patch-clamp technique was used to evaluate TREK-1 potassium channel current by using a RK 400 patch-clamp amplifier (Axon Instruments, USA), as previously described. Currents were lowpass filtered at 3 kHz, digitized at 10 kHz using a 12-bit analog-to-digital converter. […] The bath solution contained (in mM) 150 NaCl, 5 KCl, 3 MgCl2, 1 CaCl2, and 10 HEPES, adjusted to pH 7.4 with NaOH; the patch pipette solution contained (in mM) 155 KCl, 3 MgCl2, 5 EGTA, and 10 HEPES, adjusted to pH 7.2 with KOH. Cells were clamped at −80 mV and voltage changes were either applied by ramp (from −100 to 50 mV, 1 s in duration) or by step (from −100 to 40 mV, 1.5 s in duration). Cells were continuously superfused with a microperfusion system. The pipette capacitance was not subtracted from total membrane capacitance and there was no leak subtraction. […]
Pclamp software was used to analyze currents recorded in the whole-cell mode measured at 0 mV. Results are expressed as means ± SD. […]

The target in experiment [8] is T1, TREK-1. In words: Competition binding, 125I-spadin, TREK-1 transfected COS-7 cell homogenates. The following applies: 0.2 nM 125I-spadin; TREK-1 transfected COS-7 homogenates; Tris-HCl pH 7.4, 0.1% BSA; mean of duplicates from 2 to 5 independent experiments. Further details: expressed in transfected cells; host or cells: COS-7 cells, DEAE-dextran transfection. On the procedure: For competition experiments, homogenates from TREK-1 transfected COS-7 or C13NJ cells were incubated with 0.2 nM ^125I-spadin or ^125I-NT (200,000 cpm in 250 µl) iodinated and purified as previously described. Incubations were performed in 50 mM Tris-HCl, pH 7.4 containing 0.1% BSA in the presence of increasing concentrations of non-radioactive spadin or NT (10^−10 to 10^−5M). Incubations were terminated by addition of 2 ml of ice-cold binding buffer followed by filtration through cellulose acetate filters (Sartorius, Göttingen, Germany) and washing twice with 2 ml of ice-cold buffer. Radioactivity on filters was counted with a gamma-counter.

The target of experiment [9] is T2, TREK-1 (Mus musculus, UniProt P97438).
T2 chain: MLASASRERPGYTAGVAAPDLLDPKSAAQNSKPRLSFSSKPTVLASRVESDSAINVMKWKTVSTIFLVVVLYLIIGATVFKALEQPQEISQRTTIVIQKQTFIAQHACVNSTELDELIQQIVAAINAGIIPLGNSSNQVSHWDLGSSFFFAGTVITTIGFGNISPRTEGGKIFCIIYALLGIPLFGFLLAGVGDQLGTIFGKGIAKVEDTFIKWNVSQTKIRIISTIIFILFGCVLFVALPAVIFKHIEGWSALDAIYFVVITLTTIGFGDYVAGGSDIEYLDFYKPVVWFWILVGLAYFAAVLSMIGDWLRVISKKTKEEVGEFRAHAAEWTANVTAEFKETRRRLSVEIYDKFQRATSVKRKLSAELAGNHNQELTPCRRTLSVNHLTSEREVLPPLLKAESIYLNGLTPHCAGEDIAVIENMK
Description: radioligand competition. A general note: Displacement assays read how much labelled ligand stays bound in the presence of the test substance.

Experiment [10] concerns the target T2, TREK-1. In words: radioligand binding.

Sequence of sortilin propeptide 1-44 (Q99523 34-77): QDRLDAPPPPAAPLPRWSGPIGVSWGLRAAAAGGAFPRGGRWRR
Sequence of NTSR3/Sortilin (Q99523 78-755): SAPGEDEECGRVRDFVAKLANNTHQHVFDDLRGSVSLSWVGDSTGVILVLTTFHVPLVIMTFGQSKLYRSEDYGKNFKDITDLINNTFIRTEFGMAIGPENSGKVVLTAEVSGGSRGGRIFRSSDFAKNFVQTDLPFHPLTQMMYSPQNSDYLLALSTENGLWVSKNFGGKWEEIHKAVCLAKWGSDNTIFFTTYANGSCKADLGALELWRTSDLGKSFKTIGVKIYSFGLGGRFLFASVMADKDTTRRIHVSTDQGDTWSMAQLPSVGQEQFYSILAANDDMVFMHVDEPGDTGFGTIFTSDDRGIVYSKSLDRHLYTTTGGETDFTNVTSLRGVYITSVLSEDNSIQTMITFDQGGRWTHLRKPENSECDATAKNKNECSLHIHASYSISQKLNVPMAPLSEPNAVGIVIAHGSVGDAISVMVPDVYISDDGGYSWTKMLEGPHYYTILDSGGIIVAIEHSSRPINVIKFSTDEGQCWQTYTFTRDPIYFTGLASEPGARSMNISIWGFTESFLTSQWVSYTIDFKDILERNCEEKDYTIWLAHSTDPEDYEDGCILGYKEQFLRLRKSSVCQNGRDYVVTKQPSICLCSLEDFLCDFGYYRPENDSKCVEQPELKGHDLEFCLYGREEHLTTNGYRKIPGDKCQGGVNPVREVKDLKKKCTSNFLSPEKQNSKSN

Molecule “full length propeptide of NTSR3/Sortilin (Gln1-Arg44)” returned a block of the arachidonic acid-stimulated TREK-1 current at 0 mV, whole-cell patch clamp, TREK-1 transfected COS-7 cells, 500 nM propeptide in experiment [1] of 41%.

Take “sortilin propeptide 1-44 (from UniProt Q99523)”: the Kd in experiment [2] was 5 nM.

With “^125I-spadin: monoiodinated spadin (on Tyr0), HPLC purified (Y(125I)APLPRWSGPIGVSWGLR)”, in [3] (0.2 nM 125I-spadin, whole COS-7 cells expressing TREK-1), the “time to plateau of cell-associated radioactivity” value is given as not above 30 min. In addition, the “intracellular (acid-NaCl wash resistant) fraction of total bound 125I-spadin” value in experiment [3] is listed as 80%; in experiment [3] (listed as 125I-labelled spadin) it was “about 80%”. Moreover, in experiment [4], the “125I-spadin binding” value is given as “totally devoid of ^125I-Spadin binding”.

As for `CCCCC/C=C\C/C=C\C/C=C\C/C=C\CCCC(=O)O` [arachidonic acid], the “increase in amplitude of remaining current by arachidonic acid” value in [5] is 23.3%±4.8%. For the same molecule, the “increase of remaining current by arachidonic acid” value in experiment [6] was “about 50%”. Also, the “activation of TREK-1 basal channel activity” value in experiment [7] (as previously described [21]) is “strongly and reversibly activated”.

On to “QDRLDAPPPPAAPLPR [Gln1-Arg16, N-terminal fragment of the full length propeptide]”, for which the “effect on aa-induced current increase” value in [7] (after 90 s of application, Figure S2) is reported as “unable to inhibit the current increase”. In addition, in experiment [8], the “affinity for TREK-1” value stood at 1 µM.

Regarding QDRLDAPPPPAAPLPR [propeptide N-terminal fragment Gln1-Arg16 1-16], the Kd in [9] is 1000 nM.

APLPRWSGPIGVSWGLR [spadin] registered a Kd in experiment [10] of approximately 10 nM.

Usually Kd stands for the free concentration of one partner at which half of the binding sites on the other are occupied at equilibrium, for simple one-to-one binding.
